Laboratory results published in patent US20260001961A1 (ALLIGATOR BIOSCIENCE, published 2026).
Positions count from the first letter of the chain named. Names may count otherwise. Where two headings read alike, the source gives them in different places.

What was measured:
[1] = biological target: T1, EpCAM (UniProt P16422 24-265); assay: Octet BLI; biotinylated EpCAM on streptavidin sensor;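 also: octet RED96 kinetics: 300 s association, then 300 s dissociation in 1x Kinetic buffer, buffer-blank referenced, Savitzky-Golay smoothed, fitted to a 1:1 Langmuir binding model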
T1 construct: also called biotinylated EpCAM
T1 sequence (looked up): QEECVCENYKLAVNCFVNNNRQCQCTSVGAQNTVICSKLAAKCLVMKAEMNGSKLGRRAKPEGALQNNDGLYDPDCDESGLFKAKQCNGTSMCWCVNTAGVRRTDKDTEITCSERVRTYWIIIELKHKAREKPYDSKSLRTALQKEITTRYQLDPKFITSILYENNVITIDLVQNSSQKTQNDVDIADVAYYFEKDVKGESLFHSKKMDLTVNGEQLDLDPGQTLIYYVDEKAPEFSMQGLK
Description: (§1) Kinetic measurements were performed using the Octet RED96 platform (ForteBIo). […] Association was followed for 300 seconds followed by dissociation in 1x Kinetic buffer for 300 seconds. Sensor tips were regenerated using 10 mM glycine, pH 1.7. Data generated were referenced by subtracting a parallel buffer blank, the baseline was aligned with the γ-axis, inter-step correlation by alignment against dissociation was performed and the data were smoothed by a Savitzky-Golay filter in the data analysis software (v.9.0.0.14). The processed data were fitted using a 1:1 Langmuir binding model with X2 as a measurement of fitting accuracy.
(§2) Binding affinities of all the variants were determined using Octet (Pall ForteBio).

[2] = biological target: T2, CD40 (UniProt P25942 21-193); assay: Octet BLI; biotinylated CD40 on streptavidin sensor;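 also: octet RED96 biolayer interferometry, 300 s association then 300 s dissociation in kinetic buffer, buffer-blank referenced, fitted with a 1:1 Langmuir binding model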
T2 construct: also called biotinylated CD40; CD40 antigen
Description: as §1, §2

[3] = biological target: T2, CD40; assay: dual ELISA: CD40 coated, bsAb titrated, biotinylated EpCAM + streptavidin-HRP; signal needs both targets
Description: (§3) Dual ELISA Plates were coated with 0.5 μg/mL CD40 in PBS over night at 4° C. After washing in PBS/0.05% Tween 20 (PBST), the plates were blocked with PBS/2% BSA for at least 30 minutes at room temperature before being washed again. Samples serially diluted in PBS/0.5% BSA were then added and allowed to bind for at least 1 hour at room temperature. […] Dual complexed bsAb with CD40 and EpCAM were detected with HRP-labelled streptavidin. SuperSignal Pico Luminescent was used as substrate and luminescence signals were measured using Fluostar Optima.

[4] = biological target: T2, CD40; assay: as above; remark: listed apart in the source
Description: as §3

[5] = biological target: T2, CD40; assay: as above; remark: listed apart in the source
Description: as §3

[6] = biological target: T2, CD40; assay: as above; remark: listed apart in the source
Description: as §3

[7] = biological target: T3, CD40 expressed on cells (UniProt P25942 21-277); assay: flow cytometry on B16 cells expressing CD40, anti-human IgG Fcg-PE; B16wt cells as control
T3 construct: whole, on cells; also called B16-CD40; CD40 expressing B16 cells
Description: (§4) Binding to respective targets expressed on cells were evaluated using flow cytometry. I brief, CHO cells modified to express 5T4, B16 cells modified to express CD40 as well as the wildtype CHO and B16 cell lines were incubated with titrated concentrations of RUBY™ bsAbs. Binding of the antibodies was detected using fluorochrome-conjugated anti-human IgG and analyzed using flow cytometry.

[8] = biological target: T4, 5T4 expressed on CHO cells (UniProt Q13641 32-420, limits assumed); assay: flow cytometry on CHO cells expressing 5T4, anti-human IgG Fcg-PE; CHOwt cells as control
T4 construct: whole, on cells; also called CHO-5T4; 5T4 expressing CHO cells
T4 sequence (looked up): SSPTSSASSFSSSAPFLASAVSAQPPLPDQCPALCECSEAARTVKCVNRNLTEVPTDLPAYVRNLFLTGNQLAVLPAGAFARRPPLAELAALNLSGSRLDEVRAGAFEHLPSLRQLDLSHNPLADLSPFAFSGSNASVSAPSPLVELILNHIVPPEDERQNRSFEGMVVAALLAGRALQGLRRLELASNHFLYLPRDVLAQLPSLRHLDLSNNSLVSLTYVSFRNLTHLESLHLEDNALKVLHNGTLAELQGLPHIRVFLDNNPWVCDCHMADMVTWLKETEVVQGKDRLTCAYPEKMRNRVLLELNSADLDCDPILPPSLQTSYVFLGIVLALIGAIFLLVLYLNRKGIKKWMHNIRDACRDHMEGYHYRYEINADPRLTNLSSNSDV
Description: as §4

[9] = biological target: T4, 5T4 expressed on CHO cells; assay: as above; remark: listed apart in the source
Description: as §4

[10] = biological target: T3, CD40 expressed on cells; assay: flow cytometry on B16 cells expressing CD40, anti-human IgG Fcg-PE; B16wt cells as control; remark: listed apart in the source
Description: as §4

[11] = biological target: T2, CD40; assay: dual target ELISA with 5T4 and CD40 (one coated, the other biotinylated; which is not stated), streptavidin-HRP; signal needs both targets
[12] = biological target: T5, 5T4 (UniProt Q13641 32-355); assay: as above
T5 construct: also called 5T4 antigen (dual target ELISA)
T5 sequence (looked up): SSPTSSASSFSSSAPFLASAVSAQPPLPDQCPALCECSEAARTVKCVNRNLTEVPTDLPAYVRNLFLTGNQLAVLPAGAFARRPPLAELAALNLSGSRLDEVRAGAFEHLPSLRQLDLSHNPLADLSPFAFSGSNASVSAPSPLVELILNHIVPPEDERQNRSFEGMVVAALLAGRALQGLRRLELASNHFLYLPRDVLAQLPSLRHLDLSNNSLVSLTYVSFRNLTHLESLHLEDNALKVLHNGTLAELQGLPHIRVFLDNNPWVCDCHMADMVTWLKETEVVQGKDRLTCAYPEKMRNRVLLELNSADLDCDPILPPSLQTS

[13] = biological target: T5, 5T4; assay: dual target ELISA (simultaneous 5T4 and CD40)
Description: Antigen binding was evaluated by dual target ELISA. In brief, relevant antigens were coated at 0.5 μg/ml in PBS in ELISA plates over night at 4° C. After washing in PBS/0.05% Tween 20 (PBST), the plates were blocked with PBST/2% BSA for at least 30 minutes at room temperature before being washed again. Samples serially diluted in PBST/0.5% BSA were then added and allowed to bind for at least 1 hour at room temperature. […] Dual complexed bsAb were detected with HRP-labelled streptavidin. SuperSignal Pico Luminescent was used as substrate and luminescence signals were measured using Fluostar Optima. Binding was compared between parental and mutated RUBY pairs.

T2 sequence (P25942 21-193 limits assumed): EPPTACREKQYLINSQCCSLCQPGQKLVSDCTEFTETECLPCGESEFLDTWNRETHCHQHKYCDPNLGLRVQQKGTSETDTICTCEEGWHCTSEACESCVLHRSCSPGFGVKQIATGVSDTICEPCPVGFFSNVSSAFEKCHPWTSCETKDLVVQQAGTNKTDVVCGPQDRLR
T3 sequence (P25942 21-277 limits assumed): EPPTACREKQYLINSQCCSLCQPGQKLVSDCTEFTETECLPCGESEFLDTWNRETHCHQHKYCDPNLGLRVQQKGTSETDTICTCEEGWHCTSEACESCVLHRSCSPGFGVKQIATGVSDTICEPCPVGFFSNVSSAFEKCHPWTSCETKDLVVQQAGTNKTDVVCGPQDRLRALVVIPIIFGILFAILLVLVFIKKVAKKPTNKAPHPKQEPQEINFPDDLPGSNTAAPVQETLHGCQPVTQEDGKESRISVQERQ

B1: AM_4115-4131 (bispecific antibody)
heavy 1: not shown
light: DIQMTQSPSSLSASVGDRVTITCRASQSISSYLNWYQEKPGKAPKLLIYAASSLQSGVPSRFSGSGSGTDFTLTISSLQPEDFATYYCQQYGRNPPTFGQGTKLEIKRTVAAPSVFIFPPSDEQLKSGTASVVCYLNNFYPREAKVQWKVDNALQSGNSQESVTEQDSKDSTYSLWSTLTLSKADYEKHKVYACEVTHQGLSSPVTKSFNRGEC
heavy 2: EVQLLEQSGAELVRPGTSVKISCKASGYAFTNYWLGWVKERPGHGLEWIGDIFPGSGNIHYNEKFKGKATLTADKSSSTAYMQLSSLTFEDSAVYFCARLRNWDEPMDYWGQGTTVTVSSASTKGPSVFPLAPSSKSTSGGTAALGCLVKDYFPEPVTVSWNSGALTSGVHTFPAVLQSSGLWSLSSVVEVPSSSLGTQTYICNVNHKPSNTKVDKKVEPKSC
notes: AC_05293 backbone; also called double mutant I126S + Y180W; copies: 2 + 2 + 2
- Kd [1]: 7.2 nM
- koff [1]: 0.0013 s⁻¹
- kon [1]: 180000 M⁻¹ s⁻¹
- Kd [2]: 0.97 nM
- koff [2]: 0.00089 s⁻¹
- kon [2]: 920000 M⁻¹ s⁻¹
- EC50 (read off the curve) [3]: ~0.6 nM

B2: 4115 (bispecific antibody)
heavy 1: not shown
heavy 2: B1 heavy 2 with W183Y
light: B1 light
notes: also called single mutant I126S of AC_05293; copies: 2 + 2 + 2
- EC50 (read off the curve) [4]: ~0.2 µg/mL

B3: 4114 (bispecific antibody)
heavy 1: not shown
heavy 2: B1 heavy 2 with W183Y
light: B1 light
notes: also called single mutant I126Q of AC_05293; copies: 2 + 2 + 2
- EC50 (read off the curve) [5]: ~0.1 µg/mL

B4: AM_4115-4126 (bispecific antibody)
heavy 1: not shown
heavy 2: B1 heavy 2 with W183I
light: B1 light
notes: AC_05293 backbone; also called double mutant I126S + Y180I; copies: 2 + 2 + 2
- Kd [1]: 6.9 nM
- koff [1]: 0.0011 s⁻¹
- kon [1]: 170000 M⁻¹ s⁻¹
- Kd [2]: 1.1 nM
- koff [2]: 0.00085 s⁻¹
- kon [2]: 740000 M⁻¹ s⁻¹
- EC50 (read off the curve) [3]: ~0.5 nM

B5: AM_4119 (bispecific antibody)
heavy 1: not shown
heavy 2: B1 heavy 2 with W183Y
light: B1 light
notes: also called single mutant A111T of AC_05293; copies: 2 + 2 + 2
- EC50 (read off the curve) [6]: ~0.1 µg/mL

B6: AM_4120 (bispecific antibody)
heavy 1: not shown
heavy 2: B1 heavy 2 with W183Y
light: B1 light
notes: also called single mutant A111V of AC_05293; copies: 2 + 2 + 2
- EC50 (read off the curve) [6]: ~0.1 µg/mL

B7: AC_05378 (bispecific antibody)
heavy 1: not shown
light: B1 light
heavy 2: EVQLLESGGGLVQPGGSLRLSCAASGFTFSSYAMSWVREAPGKGLEWVSAISGSGGSIYYADSVKGRFTISRDNSKNTLYLQMNSLRAEDTAVYYCARYYGGYYSAWMDYWGQGTLVTVSSASTKGPSVFPLAPSSKSTSGGTAALGCLVKDYFPEPVTVSWNSGALTSGVHTFPAVLQSSGLYSLSSVVEVPSSSLGTQTYICNVNHKPSNTKVDKKVEPKSC
notes: AC_05302 with the mutation in the VH of chain H2; also called T65I mutant of AC_05302; copies: 2 + 2 + 2
- EC50 (read off the curve) [7]: ~1 nM

B8: 4112 (bispecific antibody)
heavy 1: not shown
heavy 2: B1 heavy 2 with W183Y
light: B1 light
notes: also called single mutant I126N of AC_05293; copies: 2 + 2 + 2
- EC50 (read off the curve) [5]: ~0.1 µg/mL

B9: 4116 (bispecific antibody)
heavy 1: not shown
heavy 2: B1 heavy 2 with W183Y
light: B1 light
notes: also called single mutant I126T of AC_05293; copies: 2 + 2 + 2
- EC50 (read off the curve) [4]: ~0.1 µg/mL

B10: AC_05370 (bispecific antibody, human IgG1, kappa, L234A L235A)
heavy 1: not shown
light: B1 light with Y91T, G92Y, R93G, N94Y, P95L, P96H
heavy 2: EVQLLESGGGLVQPGGSLRLSCAASGFTFSSYAMSWVREAPGKGLEWVSGIGSYGGGEYYADSVKGRFTISRDNSKNTLYLQMNSLRAEDTAVYYCARYVNFGMDYWGQGTLVTVSSASTKGPSVFPLAPSSKSTSGGTAALGCLVKDYFPEPVTVSWNSGALTSGVHTFPAVLQSSGLYSLSSVVEVPSSSLGTQTYICNVNHKPSNTKVDKKVEPKSC
notes: AC_05332 with the mutation in the VH of chain H2; also called T65E mutant of AC_05332; copies: 2 + 2 + 2
- EC50 (read off the curve) [8]: ~9 nM

B11: AC_05377 (bispecific antibody)
heavy 1: not shown
light: B1 light
heavy 2: B7 heavy 2 with I58A
notes: AC_05302 with the mutation in the VH of chain H2; also called T65A mutant of AC_05302; copies: 2 + 2 + 2
- EC50 (read off the curve) [7]: ~1 nM

B12: AM_4121 (bispecific antibody)
heavy 1: not shown
heavy 2: B1 heavy 2 with W183Y
light: B1 light
notes: also called single mutant A111W of AC_05293; copies: 2 + 2 + 2
- EC50 (read off the curve) [6]: ~0.1 µg/mL

B13: AC_05330 (bispecific antibody, human IgG1, lambda, L234A L235A)
heavy: not shown
light: not shown
chain: B7 heavy 2 with I58T
notes: RUBY format; H1 (role heavy) = IgG heavy chain-linker-Fab light chain, L1 (role light) = IgG light chain, H2 (role chain) = Fab heavy chain; also called parental bsAb AC_05330; CD40x5T4
- EC50 (read off the curve) [9]: ~30 nM
- EC50 (read off the curve) [10]: ~0.8 nM
- EC50 (read off the curve) [11]: ~0.8 nM
- EC50 (read off the curve) [12]: ~0.8 nM

B14: AC_05375 (bispecific antibody, human IgG1, lambda, L234A L235A)
heavy 1: not shown
light: not shown
heavy 2: B7 heavy 2
notes: AC_05330 with the mutation in the VH of chain H2; also called T65I mutant of AC_05330; copies: 2 + 2 + 2
- binding result [13]: no binding
- binding result [9]: no binding (tested: about 700 nM)
- EC50 (read off the curve) [10]: ~0.4 nM

B15: AC_05374 (bispecific antibody, human IgG1, lambda, L234A L235A)
heavy 1: not shown
light: not shown
heavy 2: B7 heavy 2 with I58A
notes: AC_05330 with the mutation in the VH of chain H2; also called T65A mutant of AC_05330; copies: 2 + 2 + 2
- binding result [13]: no binding
- binding result [9]: no binding (tested: about 700 nM)
- EC50 (read off the curve) [10]: ~0.5 nM

B16: AC_05373 (bispecific antibody, human IgG1, lambda, L234A L235A)
heavy 1: not shown
light: not shown
heavy 2: B7 heavy 2 with I58E
notes: AC_05330 with the mutation in the VH of chain H2; also called T65E mutant of AC_05330; copies: 2 + 2 + 2
- EC50 (read off the curve) [9]: ~30 nM
- EC50 (read off the curve) [10]: ~0.6 nM
- EC50 (read off the curve) [11]: ~0.7 nM
- EC50 (read off the curve) [12]: ~0.7 nM
